Data: the supplement of paper PMC10724198
Where “and” joins values, the source holds several entries; their conditions need not be identical. Equal entries are not always repeated. ± gives the standard deviation of the averaged measurements.

Legend:
Saccharomyces cerevisiae [1] = test: protein stability index of tFT-peptide fusion in wild type (PSI (0-1 scale)); higher = more stable (slower turnover); details: genetic background: wild type
Saccharomyces cerevisiae [2] = test: protein stability index of tFT-peptide fusion in deletion strain of DOA10 (PSI (0-1 scale)); higher = more stable (slower turnover)
Protocol: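 MPS profiling in S. cerevisiae of two library types built from selected 12-aa C-degron peptides (IN1, IN2, LN1, LN3, VN2, R1-R5, W1-W3, Atg1 and Rpa12 C-termini): saturation mutagenesis libraries and C-terminal +1 capping libraries (13 aa). Each peptide is fused to the C-terminus of a sfGFP-mCherry timer, after a GGGS linker. Cells are FACS-sorted into 8 mCherry/sfGFP bins and sequenced. PSI runs from 0 (unstable) to 1 (stable), measured once in wild type and in the das1Δ or doa10Δ background.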

Saccharomyces cerevisiae [3] = test: protein stability index of tFT-peptide fusion (C-terminal peptide) (PSI (0-1 scale)); higher = more stable (slower turnover)
Protocol: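 MPS profiling in S. cerevisiae of the tFT-X12 degron library: putative degron peptides plus stable controls, 12 aa, fused to the C-terminus of a sfGFP-mCherry timer. Cells are FACS-sorted into 8 mCherry/sfGFP bins and deep-sequenced. PSI runs from 0 (unstable) to 1 (stable). Backgrounds are wild type, das1Δ and doa10Δ at 30 °C, and wild type, das1Δ, cdc34-1 and cdc53-1 at 37 °C; 2-3 technical replicates each.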

Saccharomyces cerevisiae [4] = test: as above; details: genetic background: wild type; temperature: 30 C
Saccharomyces cerevisiae [5] = test: protein stability index of tFT-peptide fusion in deletion strain of DAS1 (PSI (0-1 scale)); higher = more stable (slower turnover)
[6] = genetic background: cdc34-1, temperature: 37 C
[7] = genetic background: cdc53-1, temperature: 37 C
[8] = genetic background: das1 deletion, temperature: 30 C
[9] = genetic background: das1 deletion, temperature: 37 C
[10] = genetic background: doa10 deletion, temperature: 30 C
[11] = genetic background: wild type, temperature: 30 C
[12] = genetic background: wild type, temperature: 37 C
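Wherever protein stability index of tFT-peptide fusion (C-terminal peptide) is given: PSI is a weighted mean of sequencing reads over stability bins, variants kept only with over 10 reads, mCherry proximal and sfGFP distal, peptide attached via GGGS linker.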
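Wherever protein stability index of tFT-peptide fusion in deletion strain of DAS1 is given: PSI is a weighted mean of each variant's read distribution over the sorted stability bins, computed only for variants having over 10 reads in total.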
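Wherever protein stability index of tFT-peptide fusion in deletion strain of DOA10 is given: PSI per variant is the weighted mean of its sequencing read distribution over the sorted stability bins, counting only variants with over 10 reads summed across bins.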
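Wherever protein stability index of tFT-peptide fusion in wild type is given: PSI derived as read-weighted mean over the 8 sorting bins, only variants exceeding 10 total reads kept, mCherry placed adjacent to the peptide and sfGFP distal.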

Sequence	protein stability index (Saccharomyces cerevisiae [1])	protein stability index (Saccharomyces cerevisiae [2])	protein stability index (Saccharomyces cerevisiae [5])	further results
AIALPMCPLLLR	0.231	0.632		
AITHPMCPLLLR	0.455	0.676		
AITIPMCPLLLR	0.236	0.639		
AITLFMCPLLLR	0.364	0.644		
AITLPFCPLLLR	0.138	0.667		
AITLPKCPLLLR	0.335	0.663		
AITLPMCCLLLR	0.139	0.602		
AITLPMCPELLR	0.663	0.674		
AITLPMCPLDLR	0.676	0.685		
AITLPMCPLGLR	0.644	0.683		
AITLPMCPLLAR	0.311	0.343		
AITLPMCPLLGR	0.603	0.607		
AITLPMCPLLLRF	0.121	0.615		
AITLPMCPLLMR	0.302	0.606		
AITLPMCPLLQR	0.626	0.671		
AITLPMCPLLWR	0.326	0.634		
AITLPMCPLMLR	0.212	0.611		
AITLPMCPLPLR	0.648	0.664		
AITLPMCPQLLR	0.64	0.688		
AITLPMCPSLLR	0.647	0.68		
AITLPMCYLLLR	0.0897	0.638		
AITLPMIPLLLR	0.115	0.595		
AITLSMCPLLLR	0.311	0.653		
AITNPMCPLLLR	0.488	0.658		
AITRPMCPLLLR	0.393	0.65		
CHVSLPILLFFR	0.0491	0.624		
CLVSHPILLFFR	0.149	0.617		

Sequence	protein stability index (Saccharomyces cerevisiae [1])	protein stability index (Saccharomyces cerevisiae [2])	protein stability index (Saccharomyces cerevisiae [5])	further results
CLVSLPALLFFR	0.0784	0.664		
CLVSLPIDLFFR	0.648	0.698		
CLVSLPIFLFFR	0.0521	0.591		
CLVSLPILLFAR	0.161	0.239		
CLVSLPILLFER	0.569	0.625		
CLVSLPILLFFRR	0.0999	0.593		
CLVSLPILLFRR	0.43	0.66		
CLVSLPILLFSR	0.391	0.486		
CLVSLPIRLFFR	0.0878	0.658		
CLVSLPYLLFFR	0.0667	0.64		
CLVSLTILLFFR	0.185	0.263		
CLVSPPILLFFR	0.0809	0.651		
CYVSLPILLFFR	0.0495	0.582		
EITLPMCPLLLR	0.338	0.656		
FVTRLDAIYFRI	0.189	0.549		
PDKRNHLIKLLN	0.141 and 0.117		0.661 and 0.625	protein stability index (Saccharomyces cerevisiae [3]; [6]): 0.537 ± 0.022; protein stability index (Saccharomyces cerevisiae [3]; [7]): 0.691 ± 0.03; protein stability index (Saccharomyces cerevisiae [3]; [8]): 0.648 ± 0.029; protein stability index (Saccharomyces cerevisiae [3]; [9]): 0.704 ± 0.0085; protein stability index (Saccharomyces cerevisiae [3]; [10]): 0.0937 ± 0.024; protein stability index (Saccharomyces cerevisiae [3]; [11]): 0.119 ± 0.0097; protein stability index (Saccharomyces cerevisiae [3]; [12]): 0.153 ± 0.031; protein stability index (Saccharomyces cerevisiae [4]): 0.194 ± 0.031
RLIQPLPVQFLQ	0.447		0.647	
RLIQPLPVQFNN	0.554		0.6	
RLIQPLPVQVLN	0.204		0.46	
RLIQPLPVQYLN	0.0462		0.661	
RLIQPLPVSFLN	0.262		0.593	
RLIQPSPVQFLN	0.0855		0.683	
RLIQQLPVQFLN	0.0315		0.602	
RLIRPLPVQFLN	0.0343		0.593	
RLQQPLPVQFLN	0.0653		0.574	
RLYQPLPVQFLN	0.068		0.586	
VRGACGGWRLVG	0.143		0.677	

Sequence	protein stability index (Saccharomyces cerevisiae [1])	protein stability index (Saccharomyces cerevisiae [2])	protein stability index (Saccharomyces cerevisiae [5])	further results
VRGAGGGWRLVG	0.209		0.663	
VRGARGGWRLVG	0.273		0.686	
VRGAVEGWRLVG	0.19		0.692	
VRGAVFGWRLVG	0.149		0.678	
VRGAVGFWRLVG	0.16		0.687	
VRGAVGGHRLVG	0.675		0.703	
VRGAVGGWLLVG	0.156		0.668	
VRGAVGGWRAVG	0.365		0.67	
VRGAVGGWRLAG	0.233		0.695	
VRGAVGGWRLHG	0.226		0.662	
VRGAVGGWRLPG	0.683		0.681	
VRGAVGGWRLVG	0.161		0.681	protein stability index (Saccharomyces cerevisiae [3]; [6]): 0.572 ± 0.059; protein stability index (Saccharomyces cerevisiae [3]; [7]): 0.754 ± 0.032; protein stability index (Saccharomyces cerevisiae [3]; [8]): 0.629 ± 0.013; protein stability index (Saccharomyces cerevisiae [3]; [9]): 0.764 ± 0.016; protein stability index (Saccharomyces cerevisiae [3]; [10]): 0.116 ± 0.028; protein stability index (Saccharomyces cerevisiae [3]; [11]): 0.131 ± 0.028; protein stability index (Saccharomyces cerevisiae [3]; [12]): 0.23 ± 0.0039; protein stability index (Saccharomyces cerevisiae [4]): 0.228 ± 0.082
VRGAVGGWRLVGT	0.678		0.689	
VRGAVGGWRLVR	0.651		0.682	
VRGAVGGWRLYG	0.239		0.686	
VRGAVGWWRLVG	0.163		0.665	
VRGAVGYWRLVG	0.152		0.668	
VRGAVNGWRLVG	0.157		0.694	
VRGAVRGWRLVG	0.146		0.7	
VRGAVYGWRLVG	0.141		0.666	
VRGRVGGWRLVG	0.121		0.675	
VRIAVGGWRLVG	0.11		0.68	
VRWRVGLWRGAS	0.209		0.648	
VSMRWTFRYWVN	0.0543		0.509	
WKILRQKMNHQN	0.244		0.678	
YRGAVGGWRLVG	0.218		0.664	
